Data on 19 sequences can be found in a protein production outcome set (Wang et al. 2014).

The nature of the series: label from the status in PepcDB records.

Take “MNKLDGIPIPKTYGPLGNLPLLDKNRVSQSLWKIADEMGPIFQFKFADAIGVFVSSHELVKEVSEESRFDKNMGKGLLKVREFSGDGLFTSWTEEPNWRKAHNILLPSFSQKAMKGYHPMMQDIAVQLIQKWSRLNQDESIDVPDDMTRLTLDTIGLCGFNYRFNSFYREGQHPFIESMVRGLSEAMRQTKRFPLQDKLMIQTKRRFNSDVESMFSLVDRIIADRKQAESESGNDLLSLMLHAKDPETGEKLDDENIRYQIITFLIAGHETTSGLLSFAIYLLLKHPDKLKKAYEEADRVLTDPVPSYKQVQQLKYIRMILNESIRLWPTAPAFSLYAKEETVIGGKYLIPKGQSVTVLIPKLHRDQSVWGEDAEAFRPERFEQMDSIPAHAYKPFGNGQRACIGMQFALHEATLVLGMILQYFDLEDHANYQLKIKESLTLKPDGFTIRVRPRKKEAMTAMPGAQPEENGRQEERPSAPAAENTHGTPLLVLYGSNLGTAEEIAKELAEEAREQGFHSRTAELDQYAGAIPAEGAVIIVTASYNGNPPDCAKEFVNWLEHDQTDDLRGVKYAVFGCGNRSWASTYQRIPRLIDSVLEKKGAQRLHKLGEGDAGDDFEGQFESWKYDLWPLLRTEFSLAEPEPNQTETDRQALSVEFVNAPAASPLAKAYQVFTAKISANRELQCEKSGRSTRHIEISLPEGAAYQEGDHLGVLPQNSEVLIGRVFQRFGLNGNEQILISGRNQASHLPLERPVHVKDLFQHCVELQEPATRAQIRELAAHTVCPPHQRELEDLLKDDVYKDQVLNKRLTMLDLLEQYPACELPFARFLALLPPLKPRYYSISSSPQLNPRQTSITVSVVSGPALSGRGHYKGVASNYLAGLEPGDAISCFIREPQSGFRLPEDPETPVIMVGPGTGIAPYRGFLQARRIQRDAGVKLGEAHLYFGCRRPNEDFLYRDELEQAEKDGIVHLHTAFSRLEGRPKTYVQDLLREDAALLIHLLNEGGRLYVCGDGSRMAPAVEQALCEAYRIVQGASREESQSWLSALLEEGRYAKDVWDGGVSQHNVKADCIART”: the protein production entry is recorded as “failed”.
For “MNKLNIKEYKTKAGEVRYILRGAYIGTDVLTGKQIKTDIRGRTKTGVKNELERLKNNFKKNGNTKGKESLETFEEVAESFFELYKLQRKIGSIDQMRSNLDNYTLPAFGNKRISKITTAQIQQQVIKWGKSAAAPLNGRQKRTTGQAKRYKLQFNIINRIFQHALSLGIIENNPCQSVIVPQVKVEQAKKEIKFYKKSELAKLFNYLESLKSGQWSNEYFKALLRLLVASGLRIGEAMALSWSDINFQNQTVSVSKTTVRRFQIQDTPKSNKSNRIISIDDKAIYVLKSWYFFQKKHFMKLGNPQQNLVFPKIEGGVMDYHNLIYKLNNIIKNAELPLLSFHGFRRSHASLCLNAEMSYKVIQERLGHSKLQLTMDLYSHLEPEKKNKELELFTKYANF” the value was “failed”; for “MNKQFIILYFNIFLVFLGIGLVVPVLPVYLKDLGLKGSDLGILVAVFALAQMIISPFGGTLADKLGKKLIICIGLGLFAISEFLFAASHTFSLLIVSRILGGFSAGMVMPGVTGMIADISVGRDKAKNFGYMSAIINSGFILGPGMGGFLAEFSHRLPFYVAGFSGCVALILSIALIKNPKNSTQDGFTQYQPELLSKINWKVFLTPIILTLVLAFGLSAFETLFPLYTADKAHYSPLDISFAITGGGIAGAIFQVFFFDKFMKHFKELTFITYALLYSAIILLALTFVHSYWSIMIISFIVFIGFDMIRPAITNYFSNIAGNRQGFAGGLNSTFTSMGNFIGPLVAGTLYDINFEFPLYMSVLVMVLGMFVIFIEKMIRSRFSNI”, “failed”.
To “MNKQVIVRSACLALFVGLAGGCATGPGGGSIYVPVGSDDRRSAPEPPRTNIPDEQDEQVWRKSEQPTVTEPDSPSTRAPSYSESGDQLPAAALTLVRDADQRLRQGDSAGAIARLERAQRIAPRSSEVYFKLAEAYVAGDNLGAAEQFTLKGLSLAGNDERMQRSGWLLLADIRRARGNVAGADQAEARAAAL” belongs “failed”; to “MNKVITDLDKALSALKDGDTILVGGFGLCGIPEYAIDYIYKKGIKDLIVVSNNCGVDDFGLGILLEKKQIKKIIASYVGENKIFESQMLNGEIEVVLTPQGTLAENLHAGGAGIPAYYTPTGVGTLIAQGKESREFNGKEYILERAITGDYGLIKAYKSDTLGNLVFRKTARNFNPLCAMAAKICVAEVEEIVPAGELDPDEIHLPGIYVQHIYKGEKFEKRIEKITTRSTK”, “failed”.
To “MNKYLSFIFASVLTLTGVQLSKASNPSDSLAIVSAKWERTSSLQGIQLKQASIEGLFGGKQSISILTIGRAEGYTAFIATTDSLTTTSQLAEQSRSSAAINGSYFSIKEGFSTCYLRKNEAVIDTTTTEERHLRVNGAVHMVDNNIRIIPWNDENEKKGFPLDGDILASGPLLMQDGKTCDFTTIDREFSETRHPRSAIALTKEGDIMLVAVDGRAEGHADGMSIAELAYLLRILKAHCALNLDGGGSTTLWVNGQVVNHPSDNKKFDNKGERKVHNIIAVRRLTNP” belongs “failed”; to “MNLAKGLDVLKISSNVLGEDKVMYIPAIYTEDDATLIDTGLPGQGDLIIDALNKSNTSFDRLKNIIITHHDIDHIGNINYLREKSKNNIKVYAYKSEVSYITGEETPFKLYMLEQMVDKIDDKMLSMLNVMGLGFKSSYTKVDVSLDNHEKLNLGEEIEVIHTGGHTRGHICLYLKESKVLIAGDLLQVENGELKPVDVMHSNKQELKDAIKNISNYDIETIVFSHGGLYQRNIIETLKNLIIE”, “failed”.
As for “MNLAVTVLEIVAPVFLLAAVGFGWVRMGFEYRLQFVTRLGTMLAVPCLIFVALMKTEIPGGDLSRFTLASALAILALTVVFGLIVRFSGLDRRTYLPPLLFGNTGNLGLPLCMFAFGIEGLSYAVVFFSLSALWSFSYGIHVVAGQGSLSKVVREPMVWATLLGALFLSQDWQTPRFLTNALELIGQMAVPLMLITLGVAMARLSIRRIGQALGLSLLKLAICFPVGWLVAQGFGLSGPALGVLVVQMSVPAAVSAYLLAERFGADADAVAGMVMVSTLLAVGALPLVLAAVL”, the protein production entry was “failed”.
For “MNLAYETQSIAERREQLREEGKIELPLNVDTRKYLLSFIRYRDVLISLPLLIAGIVALYIIHRTGIGINSQNVIVCFAPWATFLLLLTIQHPDRKNISFFEHRIVWRIKYNNRQKLFVYTKGDLMGNKKEKDVREQLGISNIYSDCYETTDKRLVKVIKVSSINLSLLNNKEKRMIFQAYETFLNDLPKNLTLQISQIAQPVNLKNYFLFIQEKTSREQDMAKKLLAKGYLDFIDDIQKSKNMVSRNRYVIISKPFTAQNRESVLEELDRQAKILVSQIENMLGGRFQLKAEILNNEELFHLIYTCVDYENAQVNAEIKTSTFPITLGKETYIEMKKRWEKEVTEKII” the value was “failed”; for “MNLCGDSEILKEDDNTKNFARKNPDPYPPTGTSLVYLDHLELCLCSTEWWNLLTCILDDAPKLRVLKLKLYRKHCVEYNESMEPWKQPDYVPICLSSYLEIFEWRQYNGEEQEREVAKYILENASRLKKAIFYLESAEKHGILKELECMARGSKKCQLVFD”, “failed”; for “MNLDKVNKYIKDFEKTIKKPKINFDKSKFYVGVDLGTANIVITILDKDGKPVAGVTQRSRVVRDGIVVDFMEAIEIVRKLKENLEKKLGIEITEGYTAIPPGVEQGSVRAIVNVIESAGIDVLKVVDEPTAASYVLGITDGVVVDLGGGTTGISILEKGKVIFVADEPTGGTHMTLVLAGSYGIDFETAEDIKTDKKKEKEVFVQITPVLQKMAAIVKKYIKDYKVKDVFLVGGACSFDGSESIFERELGLNIYKPYMPVYITPLGIALAGMKSLEHHHHHH”, “not failed”.
As to “MNLEHHSNHYQPTCSIEALQARAKLYQTIRTFFAERGVLEVETPIISQAGVTDVHLASVKALRHIEGKERTQYLQTSPEFAMKRLLASGSGPIYQLCKVFRDDEHGRKHNSEFTMLEWYRPEFDLKDLMHETADLLETCLKQRFDEIRPMILSYKHAFQDRLEINPLQATLKQLKDTADRVGLNLDLGNDRLAYIDLLFSHIVEPSLGFDTPVFLTDFPPEMASLAKVRIDEDGEEVAARFEVYIEGLELANAYDELLDANILRARFEADNLERKLQGLAEMPLDENLLAALPHMPACAGIALGVDRLLMIATRQLKIEQVIAFPAAIA”, the protein production result is listed as “failed”.
For “MNLEPPKAEIRSATRVMGGPVTPRKGPPKFKQRQTRQFKSKPPKKGVQGFGDDIPGMEGLGTDITVICPWEAFNHLELHELAQYGII” the value was “not failed”.
For “MNLESITVVLPTRNEAGNIGAFLASLPQAVHLIVVDASEDETPDIIQRERPARTQVLRRRSTITQARQLGAEAALTDWLLFTDADIVFPDGYFDALERVMDAAVVYGPKLSRDRFAAYYRWFGYGQQCSHWLGIPAATGSNLLVRKDALIAVGGFDPALVCNEDSELVWRIKRAGYRIRFEPSLPVYARDHRRLDSGLWRKTCHSVFRCALLYWDLMPARWRGADWGYWSPQQSGRAPGVSRVELEHHHHHH” the value was “failed”; for “MNLGQWIGLIALILSLYILWQIKEVLLLMFAAVVLATTLNRLAKRFQRSGMKRGWAVMLAVAIFFAVVVGFFWLIVPPFAEQFNELTYRVPQGFERFNAWINELRTRIPAQLVPYIPDLNSLIQQAQPFINRVLGSSFAIVSGSLEVVLKVLLVLVLTGMLLADPIAYRKVFVRLFPSFYRRRVDGILDQCEVSLEGWVTGAVIAMGVVGLMSVVGLSILGVKAALALGVLAGFLNLIPNLGPTLSVVPAMAIALLDSPWKVVAVLILYFIIQQAESNFITPIVMAQQVSLLPAVTLISQLFFVTFFGFLGLFLALPLTVVAKIWVQEVLIKDVLDEWGHDHSQESELVMVSHYSEGDDHWSDDKQANKPTDDTVSQED”, “failed”.
To “MNLHSRQDEGPIPSGNPYALSLSMSAILAPFKKIYDLIDGFVLIMLTAIGIALIAPEIGTGDGPLRLGVVTNLGVALVFFLHGAALSRDKLVAGAKHWRLHVFVQSFTYIVFPIVGVLLMLSLRNTLPPELLLGVFYLCALPSTVSSSVAMTSMARGNVPGAIFNATISGLIGMALTPLLMGLVISASGASMPLGRALMGVALQLLLPFALGQAARPLIGNWLAKKKQITNKIDRGVIVLIVYSSFCDATAAGLWHQYHWQTIGAVMGIAAVLLFVILGTTTFTARRLGFSVEDEITAVFCGSKKSLANGIPMAKILFAGHPALGLLVLPLMVYHQLQLIVCSVIAARYANRDDVETREAVRA” belongs “failed”; to “MNLINMSNFTSGRRLLRFAVVADSHLNPVNAGNTSPWQTNHLANPRNEVVVAAINRIAPAFTVHVGDVVHPLPHSTDYDGAADFATTLYRGLQAPFYIAPGNHDIGDKHLPGNPAACISADSCGKYEQHFGAQWQAFTEGNVCFIIINACLLGSGLPQEDAQWQFLQSRLAEEKAAGRRLFLFTHYPPFVTAPDEENHYDNIDHGPRRRLLELTASAGVEALFAGHVHTFFLNRHAGMWSYALPSSTNFRQDYAELFRVEPGEELGRNDLGKFGFFVVDIHEHGHIARFVRTYGSTDPAQGEEIALQVEGDVREHAAGTVAADFRHDWARVEALPYNPPLDAFVRKRVRNDYYILNLWDAGMRGVRLPIHDIADEQAFERVRLLGELGHRCLVFGTAVPDAHLLERLASLGPALEGYEWIGPDSAIAAHAAGQFARRGIRLFVAPVMQPPSSHSQGQYDHNMTSGIALGELDHLARFRPQRADASAPGVVVRIAGDEPVLESVRQAVEQAASHGVAIALHINLANRKSALVNDDDQAQAARVAEAAIAKAAYPDVPMTLDTFMDIDRGYFARHGLVDRRNNPRPAATVLRRLSERLRGHAVRIGAITREPAQSTVRIALGDQTLDVRIGRDISF”, “failed”; to “MNLKDLLAHRENLMDSAKRARSAITDDMDPADAAQAVENVKSIISEIESTDEAIAARRGVSDVTQKLKGLTITERGTENDSAASRSLGEHFVKAAGDRLKNQAAGAHIEYSVPEYQVKEDAHSSPKDLVEGWGTFYQR”, “not failed”.
Take “MNLKQAFIDNNSIRLGLSADTWQEAVRLAVQPLIDSKAVTSAYYDAIIASTEKYGPYYVLMPGMAMPHAEAGLGVNRNAFALITLTKPVTFSDGKEVSVLLTLAATDPSIHTTVAIPQIVALFELDNAIERLVACQSPKEVLEMVEESKDSPYLEGMDLNA”: the protein production result is on record as “not failed”.
